{"source": "paper PMC11544209", "binders": {"B1": {"name": "EMX1a 38 bp target + PsCas9 original EMX1a sgRNA (mixed)", "DNA 1": "TGTATGTCACCTCCAATGACTAGGGTGGTACACAAACA", "DNA 2": "TGTTTGTGTACCACCCTAGTCATTGGAGGTGACATACA"}}, "target": "T1, PsCas9 WT (UniProt PDB:8UMF_1 1-1462)", "T1 sequence": "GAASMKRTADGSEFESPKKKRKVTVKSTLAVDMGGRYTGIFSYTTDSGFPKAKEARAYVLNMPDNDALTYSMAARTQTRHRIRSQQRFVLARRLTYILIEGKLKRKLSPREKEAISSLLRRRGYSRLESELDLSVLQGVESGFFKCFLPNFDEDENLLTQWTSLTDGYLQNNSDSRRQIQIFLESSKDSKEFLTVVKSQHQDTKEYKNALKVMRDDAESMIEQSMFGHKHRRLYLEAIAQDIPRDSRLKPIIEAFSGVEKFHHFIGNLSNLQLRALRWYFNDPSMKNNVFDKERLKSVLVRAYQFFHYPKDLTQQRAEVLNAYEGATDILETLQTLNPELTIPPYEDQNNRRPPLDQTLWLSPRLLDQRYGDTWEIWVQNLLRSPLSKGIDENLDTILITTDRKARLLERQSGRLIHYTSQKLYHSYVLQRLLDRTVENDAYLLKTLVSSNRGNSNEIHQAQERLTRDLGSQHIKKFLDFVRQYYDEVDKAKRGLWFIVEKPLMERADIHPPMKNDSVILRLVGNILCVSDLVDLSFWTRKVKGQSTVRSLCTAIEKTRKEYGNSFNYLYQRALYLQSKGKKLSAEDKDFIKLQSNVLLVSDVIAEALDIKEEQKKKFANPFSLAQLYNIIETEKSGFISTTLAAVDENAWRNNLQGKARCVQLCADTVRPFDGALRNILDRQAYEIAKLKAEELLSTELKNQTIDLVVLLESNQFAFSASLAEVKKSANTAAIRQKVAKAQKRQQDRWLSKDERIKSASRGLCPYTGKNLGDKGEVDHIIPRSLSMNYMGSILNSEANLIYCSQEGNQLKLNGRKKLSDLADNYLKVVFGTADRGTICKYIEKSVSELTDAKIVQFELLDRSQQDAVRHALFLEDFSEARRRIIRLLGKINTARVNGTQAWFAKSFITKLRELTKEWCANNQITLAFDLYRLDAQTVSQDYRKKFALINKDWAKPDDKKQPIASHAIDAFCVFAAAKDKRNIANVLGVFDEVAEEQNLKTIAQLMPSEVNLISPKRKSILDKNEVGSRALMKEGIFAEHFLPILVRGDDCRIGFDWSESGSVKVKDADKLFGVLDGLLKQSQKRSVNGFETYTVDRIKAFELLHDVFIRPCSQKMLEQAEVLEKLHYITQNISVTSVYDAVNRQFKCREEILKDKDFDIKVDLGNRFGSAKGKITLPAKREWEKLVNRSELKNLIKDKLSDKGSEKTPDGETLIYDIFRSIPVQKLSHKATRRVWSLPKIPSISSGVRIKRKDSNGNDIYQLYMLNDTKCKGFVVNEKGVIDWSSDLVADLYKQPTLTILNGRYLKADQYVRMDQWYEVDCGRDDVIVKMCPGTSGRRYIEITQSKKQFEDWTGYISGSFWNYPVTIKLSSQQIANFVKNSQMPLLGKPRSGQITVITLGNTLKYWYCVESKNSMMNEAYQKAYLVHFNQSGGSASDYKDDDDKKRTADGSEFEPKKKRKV", "assay": "fluorescence polarization"}
{"binder": "B1", "values": [{"measurement": "Kd", "value": "~112", "unit": "nM"}]}
